Experimental data reported in IntAct's records for PubMed 20124439.

B1: Glycosylphosphatidylinositol-anchored high density lipoprotein-binding protein 1 (Homo sapiens), Q8IV16 (parent)
chain: MKALGAVLLALLLFGRPGRGQTQQEEEEEDEDHGPDDYDEEDEDEVEEEETNRLPGGRSRVLLRCYTCKSLPRDERCNLTQNCSHGQTCTTLIAHGNTESGLLTTHSTWCTDSCQPITKTVEGTQVTMTCCQSSLCNVPPWQSSRVQDPTGKGAGGPRGSSETVGAALLLNLLAGLGAMGARRP
partner: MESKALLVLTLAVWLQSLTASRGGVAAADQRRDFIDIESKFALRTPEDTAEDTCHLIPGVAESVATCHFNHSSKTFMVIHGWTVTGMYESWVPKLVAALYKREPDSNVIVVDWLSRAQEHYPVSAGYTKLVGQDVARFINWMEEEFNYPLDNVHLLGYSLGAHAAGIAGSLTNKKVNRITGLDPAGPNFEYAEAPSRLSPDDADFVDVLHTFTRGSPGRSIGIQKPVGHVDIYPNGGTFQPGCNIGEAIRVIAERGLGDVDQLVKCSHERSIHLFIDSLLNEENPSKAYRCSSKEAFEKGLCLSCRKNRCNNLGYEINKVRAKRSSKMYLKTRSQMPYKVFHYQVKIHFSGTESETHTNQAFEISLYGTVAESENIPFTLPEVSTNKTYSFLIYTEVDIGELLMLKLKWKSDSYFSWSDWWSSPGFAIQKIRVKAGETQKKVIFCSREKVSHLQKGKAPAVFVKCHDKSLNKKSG

Variants of: B1
Details: with lipl_human LPL

Row | Variant | effect of a mutation on the interaction
1 | MKALGAVLLALLLFGRPGRGQTQQEEEEEDEDHGPDDYDEEDEDEVEEEETNRLPGGRSRVLLRYYTCKSLPRDERCNLTQNCSHGQTCTTLIAHGNTESGLLTTHSTWCTDSCQPITKTVEGTQVTMTCCQSSLCNVPPWQSSRVQDPTGKGAGGPRGSSETVGAALLLNLLAGLGAMGARRP | decreasing interaction
2 | MKALGAVLLALLLFGRPGRGQTQQEEEEEDEDHGPDDYDEEDEDEVEEEETNRLPGGRSRVLLRCYTCKSLPRDERCNLTQNCSHGQTCTTLIAHGNTESGLLTTHSTWCTDSCPPITKTVEGTQVTMTCCQSSLCNVPPWQSSRVQDPTGKGAGGPRGSSETVGAALLLNLLAGLGAMGARRP | decreasing interaction
